Here are results for 1 molecule from paper PMC5746248, “Comparative analysis of the end-joining activity of several DNA ligases”.

Holding throughout (test): fluorescence anisotropy; 10 mM MgCl2, 1 mM ATP; T4 DNA ligase reaction buffer: 50 mM Tris-HCl pH 7.5 (25°C), 1 mM ATP, 10 mM MgCl2; 750 pM-4 nM DNA; anisotropy temperature not stated
Series [1] has as its target T1, T3 DNA ligase (bacteriophage T3, UniProt P07717 1-346).
T1 sequence: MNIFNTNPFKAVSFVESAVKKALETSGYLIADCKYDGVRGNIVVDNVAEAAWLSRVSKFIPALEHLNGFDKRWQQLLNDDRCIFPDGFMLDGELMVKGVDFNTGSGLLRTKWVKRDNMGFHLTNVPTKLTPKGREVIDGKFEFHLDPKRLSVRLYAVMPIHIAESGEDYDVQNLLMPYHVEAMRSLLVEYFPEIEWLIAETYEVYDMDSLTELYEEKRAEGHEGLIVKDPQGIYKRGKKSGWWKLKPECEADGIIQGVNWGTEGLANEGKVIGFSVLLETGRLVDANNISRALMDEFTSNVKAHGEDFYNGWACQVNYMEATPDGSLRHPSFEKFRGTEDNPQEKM
Conditions: label: 3'-FAM on one strand; blunt.

In series [2] the target is T2, hLig3 ZnF (human, UniProt P49916 88-206).
T2 sequence: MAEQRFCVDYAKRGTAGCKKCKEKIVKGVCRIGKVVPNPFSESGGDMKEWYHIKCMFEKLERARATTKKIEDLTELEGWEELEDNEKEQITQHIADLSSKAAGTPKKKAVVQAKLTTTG
Conditions: protein: recombinant; tags: His10; label: 3'-FAM on one strand; blunt.

Series [3] has as its target T3, Sso7d (Sulfolobus solfataricus, UniProt P39476 2-64).
T3 sequence: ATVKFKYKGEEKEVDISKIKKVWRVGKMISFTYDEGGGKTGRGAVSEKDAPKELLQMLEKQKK
Conditions: protein: recombinant; tags: N-terminal His6; label: 3'-FAM on one strand; blunt.

Series [4] deals with T4, hLig3 (human DNA ligase III beta) (human, UniProt P49916-2 88-949).
T4 sequence: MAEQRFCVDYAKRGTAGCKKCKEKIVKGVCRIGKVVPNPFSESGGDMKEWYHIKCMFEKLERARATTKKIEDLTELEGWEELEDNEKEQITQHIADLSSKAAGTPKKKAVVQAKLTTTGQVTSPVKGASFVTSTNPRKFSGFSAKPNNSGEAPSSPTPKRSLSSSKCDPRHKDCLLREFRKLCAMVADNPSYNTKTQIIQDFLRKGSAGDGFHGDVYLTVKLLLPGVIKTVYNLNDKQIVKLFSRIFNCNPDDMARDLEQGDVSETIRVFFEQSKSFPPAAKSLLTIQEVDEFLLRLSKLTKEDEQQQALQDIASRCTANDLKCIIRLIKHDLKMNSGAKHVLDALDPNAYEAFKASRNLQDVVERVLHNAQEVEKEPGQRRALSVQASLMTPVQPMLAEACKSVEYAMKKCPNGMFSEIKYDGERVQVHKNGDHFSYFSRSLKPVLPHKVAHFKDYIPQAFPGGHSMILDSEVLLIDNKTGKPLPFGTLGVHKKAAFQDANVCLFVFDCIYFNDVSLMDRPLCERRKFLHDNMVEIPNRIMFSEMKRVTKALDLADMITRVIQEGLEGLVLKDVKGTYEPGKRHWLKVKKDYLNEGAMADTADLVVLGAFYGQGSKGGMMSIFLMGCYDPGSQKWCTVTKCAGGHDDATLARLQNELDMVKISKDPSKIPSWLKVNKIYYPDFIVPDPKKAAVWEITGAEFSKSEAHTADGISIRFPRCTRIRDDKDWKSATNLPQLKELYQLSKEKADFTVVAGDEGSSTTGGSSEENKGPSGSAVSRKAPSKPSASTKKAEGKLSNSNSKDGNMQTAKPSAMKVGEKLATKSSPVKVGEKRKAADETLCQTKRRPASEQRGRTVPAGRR
Conditions: protein: recombinant; tags: N-terminal His6; label: 3'-FAM on one strand; blunt.

For series [5], the target named is T5, PBCV1 DNA ligase (Paramecium bursaria chlorella virus 1, UniProt O41026 1-298).
T5 sequence: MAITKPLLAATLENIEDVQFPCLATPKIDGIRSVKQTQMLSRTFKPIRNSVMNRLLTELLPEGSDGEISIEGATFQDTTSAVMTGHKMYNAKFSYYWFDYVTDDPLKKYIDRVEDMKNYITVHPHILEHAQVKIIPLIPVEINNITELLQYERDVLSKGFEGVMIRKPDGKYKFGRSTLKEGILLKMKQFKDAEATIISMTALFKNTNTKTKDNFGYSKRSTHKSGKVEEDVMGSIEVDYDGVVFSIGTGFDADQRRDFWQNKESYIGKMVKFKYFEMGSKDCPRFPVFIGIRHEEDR
Particulars: protein: recombinant; label: 3'-FAM on one strand; blunt.

For series [6], the target named is PBCV1-Nterm-T4NTD (bacteriophage T4 (T4NTD) / Paramecium …, UniProt P00970 1-135+O41026:1-298, internal_change). Conditions: protein: recombinant; tags: N-terminal His6; label: 3'-FAM on one strand; blunt.
Series [7] has as its target T6, T4 DNA ligase (bacteriophage T4, UniProt P00970 1-487).
T6 sequence: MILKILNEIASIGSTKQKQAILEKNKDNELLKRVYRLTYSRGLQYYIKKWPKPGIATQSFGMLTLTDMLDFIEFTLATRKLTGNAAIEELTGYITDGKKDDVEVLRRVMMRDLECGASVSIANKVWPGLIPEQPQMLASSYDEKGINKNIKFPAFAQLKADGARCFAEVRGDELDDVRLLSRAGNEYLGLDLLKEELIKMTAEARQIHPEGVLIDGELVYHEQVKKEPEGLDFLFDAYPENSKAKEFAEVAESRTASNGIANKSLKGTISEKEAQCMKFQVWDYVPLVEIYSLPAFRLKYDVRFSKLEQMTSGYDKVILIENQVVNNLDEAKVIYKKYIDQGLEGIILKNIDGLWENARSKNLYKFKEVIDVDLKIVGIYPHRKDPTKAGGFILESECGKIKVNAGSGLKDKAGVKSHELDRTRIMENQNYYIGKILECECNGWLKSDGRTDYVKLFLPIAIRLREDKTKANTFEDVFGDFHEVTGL
Conditions: label: 3'-FAM on one strand; blunt.

B1: Anisotropy 24mer dsDNA (dsDNA)
DNA 1: GATCGTCCTTGGTGATCATGCATC
DNA 2: GATGCATGATCACCAAGGACGATC
With B1, the Kd in series [1] turned out to be 6400 ± 400 nM; in series [2] it was 21 ± 1 nM; in series [3], 430 ± 60 nM; in series [4] it was 3.8 ± 0.2 nM; in series [5], 990 ± 80 nM; in series [6] it was 243 ± 39 nM. Besides, the Kd in series [7] turned out to be 1900 ± 100 nM.

Usually Kd stands for the free concentration of one partner at which half of the binding sites on the other are occupied at equilibrium, for simple one-to-one binding.
